Measurements as given in the supplement of paper PMC10567573.
± gives the standard deviation.

Assay: protein stability index of a GFP-peptide fusion (GPS, HEK-293T) (PSI 1-6); higher = more stable
[1] = treatment: DMSO, c terminus: a fixed tail appended
[2] = treatment: MLN4924 1 uM, 8 h, c terminus: a fixed tail appended
[3] = treatment: DMSO, c terminus: native
[4] = treatment: MLN4924 1 uM, 8 h, c terminus: native
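Note: 24-mer peptide tiles fused after GFP, lentivirally expressed, FACS-sorted into six equal bins by GFP/DsRed ratio, decoded by Illumina sequencing, PSI is the read-weighted mean bin number.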

Sequence	protein stability index [1]	protein stability index [2]	protein stability index [3]	protein stability index [4]
KKKSVAMHTNYLSACSFTNSDMQI [GNB5]	2.8 ± 0.12	2.8 ± 0.14		
IGPFGGFFASGFKRAFKIKDFANT [CDS2]	2.32 ± 0.27	2.15 ± 0.4		
AFTMAENLANCERLIEVEDMMVMG [SMTNL2]	2.58 ± 0.35	3.24 ± 0.34		
GFTNKQLQSGQEYVFFVLAVMEHA [PTPRD]	2.95 ± 0.76	2.39 ± 0.79		
EEFPKREDQEGSPPETSLPYKWVV [MYBL2]	3.83 ± 0.33	3.99 ± 0.41		
MAVALGCAIQASLNQGSVFQEYDT [ZNF449]	3.91 ± 0.54	2.88 ± 1.2		
GPFDLMSRRVIAANNRILAERIAK [IMPA1]	2.54 ± 0.39	3.46 ± 0.59		
GRSNAPITAPTEVEVMDETNCQKV [CSNK1G3]	5.55 ± 0.15	5.59 ± 0.13		
VDDFRLKYENELALRQSVEADING [KRT13]	4.67 ± 0.15	4.62 ± 0.2		
AMAYHHDSRRIFVGQDNGAVMEFH [WDFY1]	3.08 ± 0.15	2.96 ± 0.32		
ICTQKCALNWTDIPVAMEHQPPYI [VPS39]	2.25 ± 0.48	2.12 ± 0.11		
LTPADKAEHMKRQRHPRLRPQSAQ [AUP1]	4.36 ± 0.16	4.57 ± 0.28		
VTDINDNAPKFQAENLDVKINENV [PCDHGA10]	5.22 ± 0.1	5.01 ± 0.37		
AIAPFQSAGSPPELQGLPELHEEC [NET1]	4.99 ± 0.33	4.85 ± 0.14		
RVQVQVVERAQQVAVQEQEIARRE [FLOT1]	5 ± 0.43	4.76 ± 0.67		
MHDMLLEELAPVGTAHIPPTMHLE [ZNF449]	3.71 ± 0.32	3.64 ± 0.12		
TTYLKTIEVFDPDANTWRLYGGMN [KLHL20]	2.34 ± 0.23	2.26 ± 0.042		
LAHLAPLFDNPKLDKELRAMLREK [INTS3]	2.6 ± 0.41	2.65 ± 0.5		
ASEFLEQSMSQTRELLLDGGYLQR [RSPH3]	3.58 ± 0.43	3.55 ± 0.51		
NLAAAAADIPQDQLVVMHPTPQVD [BTBD10]	5.14 ± 0.21	5.13 ± 0.21		
GASSCDGCKGFFRRSVRKNHMYSC [HNF4A]	2.36 ± 0.22	2.62 ± 0.26		
QYREAAGPHEAFNKLWELCCQWLK [ZNF449]	2.93 ± 0.53	3.05 ± 1		
YLEVAKHFKPHGFSSDKAKAGSSE [ATF4]	3.97 ± 0.092	4.24 ± 0.33		

Sequence	protein stability index [1]	protein stability index [2]	protein stability index [3]	protein stability index [4]
EKPYGCSECGKAFPRKSELTEHQR [ZNF649]	3.95 ± 0.49	4.44 ± 0.52		
SSVCVQGRCIHAGCDRIIGSKKKF [ADAMTS4]	3.57 ± 0.26	3.22 ± 0.38		
RNERSIQEKLQVLMAEGLLPAVKV [SMG5]	2.69 ± 0.26	2.6 ± 0.22		
IIHEAGYSEEECKQYKAVVYSNTI [GNAI1]	2.81 ± 0.04	2.77 ± 0.45		
KPILLQRMEGSQEVVNMAVIVPKE [WDFY2]	3.7 ± 0.09	3.54 ± 0.4		
MSSENCFVAENSSLHPESGQENDA [CD69]	5.71 ± 0.19	5.54 ± 0.096		
SWSQYEMPEFSSDSTMRILSNLVQ [RTP4]	2.48 ± 0.24	2.59 ± 0.3		
VVKVISTIPATLLVDHVGSKTFLC [SLC2A12]	2.95 ± 0.43	2.75 ± 0.37		
VLHIVASLIILHLSGATKKGTEKQ [NETO1]	2.78 ± 0.57	2.9 ± 0.65		
ERLVVLDYIIRNTDRGNDNWLIKY [PI4K2A]	2.2 ± 0.65	2.49 ± 0.65		
EKAAALERQLKVMASDHREALLDR [LRRC45]	4.41 ± 0.17	4.49 ± 0.46		
TIAPTLIADLFVADQRSRMLSIFY [SPNS1]	2.87 ± 0.66	2.66 ± 0.6		
DNAPAVLHPRPDWEHSAPQRLPRS [PCDHGC5]	4.72 ± 0.17	4.81 ± 0.17		
QGTAEEDHVDLSLSCTLVPRSGEQ [CDKN1A]	5.19 ± 0.12	5.2 ± 0.28		
AGVGLSGGAAGAGWCIFVYNLSPE [ELAVL3]	3.13 ± 0.71	2.71 ± 0.26		
LQSELAGVADFSATYLRCQLLLIK [INTS4]	2.79 ± 0.46	2.57 ± 0.11		
EEVKTPEEEMRSHYVAQTGILWLL [GAGE1]	2.11 ± 0.31	2.44 ± 0.49		
LRMLEYEPAARISPLGALQHGFFR [DYRK1B]	2.51 ± 0.2	2.61 ± 0.33		
HVEEHFQLLARRMQVDKKRVYLAT [FUT8]	2.32 ± 0.14	2.29 ± 0.45		
FSVLMEKLCKKGLAATTSMAYAKL [FANCE]	3.19 ± 0.73	2.75 ± 0.56		
AQLFMDHLFAGAEVILLVVMAYDR [OR4A15]	2.2 ± 0.74	2.75 ± 1		
PEEKKEEEGSANRRPEDQELESLS [CHGA]	5.58 ± 0.34	5.71 ± 0.12		
FRLTTLLMSGCSSELKNRMEYALN [PLK2]	2.46 ± 0.53	2.35 ± 0.47		

Sequence	protein stability index [1]	protein stability index [2]	protein stability index [3]	protein stability index [4]
GELVLATAISSFTRHVFTCGRRGI [TLE6]	2.37 ± 0.31	2.52 ± 0.52		
VFLVDICLLTYGMTSSSAYYYTKV [PKD2L1]	2.98 ± 0.2	2.84 ± 0.58		
VILHLKEDQTEYLEERRVKEVVKK [HSP90AB1]	2.57 ± 0.25	2.77 ± 0.36		
EEIKTWGTVFQELNKLYPTHACRE [TPH1]	2.95 ± 0.23	3.02 ± 0.28		
MGTRRKHLGCAVYQDMIYAVGGRD [KLHL20]	2.33 ± 0.27	2.29 ± 0.56		
LESEGKNSKKEEPQELLQSQDFVG [ATE1]	5.73 ± 0.27	5.54 ± 0.14		
TYMSADDLRINLWNFEITNQSFNI [PPP2R2B]	2.43 ± 0.66	2.53 ± 0.3		
GKVKLQQNPGKFDELDMSPGDPKW [TBC1D10A]	4.51 ± 0.32	4.83 ± 0.23		
SSRPENIPPKEFHFRHPKRSVSLS [BNIP3L]	4.29 ± 0.35	4.24 ± 0.051		
EDQVPALEAPEDIGSTSESKDWEE [MIA2]	5.8 ± 0.12	5.71 ± 0.27		
DSDSCQKCDQPFFWNFKQMWDSKK [WDFY2]	3.64 ± 0.16	3.71 ± 0.081		
EVEGTKPSATEMIWAVLAAFNKS [GOLPH3L]			2.4 ± 0.18	2.4 ± 0.33
RTDSREQKLDAFLQPLSKPLSSQP [MLH1]	4.32 ± 0.082	4.44 ± 0.14		
AARLLFNMAGVTFRKFIPKCSKIV [DCTD]	1.97 ± 0.15	2 ± 0.18		
VAQGPFDSFVVQYEDTNGQPQALL [TNXB]	3.43 ± 0.44	3.16 ± 0.46		
PLPGKAFLRQLPFRGDDGIFDDNF [SNX3]	3.47 ± 0.23	3.41 ± 0.47		
SVHVPGPHAMTIQELVDYVNARQK [PTPN9]	3.49 ± 0.34	3.47 ± 0.28		
CLAGCEGAHEQVDFKDFYPAIADL [P3H4]	3.59 ± 0.48	3.68 ± 0.26		
PAICALRHLTSRHQEAEMAQNAVR [CTNNB1]	3.2 ± 0.5	3.67 ± 0.32		
CSIALLRALATSNARAQQRAAAQQ [GNAS]	2.23 ± 0.23	2.27 ± 0.12		
AVIKSNHSYCRMFLQRGADTNLGR [ASB7]	2.26 ± 0.16	2.41 ± 0.14		
LVAHQRYHTGKTPFVCPECGQPCS [ZNF649]	3.62 ± 0.45	4.03 ± 0.51		
VQRTQSVPVRRPARRRQSAGPWPR [RASAL3]	4.55 ± 0.26	4.48 ± 0.096		

Sequence	protein stability index [1]	protein stability index [2]	protein stability index [3]	protein stability index [4]
QYRWDMMHRLGEPQARMREENMER [BEX1]	4.1 ± 0.37	4.23 ± 0.16		
RDKAKMRNLETQHKVLELTAENER [CEBPB]	4.9 ± 0.2	5.24 ± 0.24		
EPRQRRLLLLDLLALYTPVGAAGS [ANKRD9]	2.65 ± 0.57	2.44 ± 0.88		
VKYIVERTMLDFPQHVSSDKEVRA [NLN]	2.82 ± 0.36	2.69 ± 0.25		
LDNNASASGNATQTESGSEEVSST [C10orf62]	5.7 ± 0.2	5.64 ± 0.15		
EQNQEGDAAYRKALDLAREFLPQG [AUH]	4.42 ± 0.19	4.44 ± 0.37		
YLTIILILISFTCRFLLNSRVTDA [TMEM120A]	3.19 ± 0.26	3.12 ± 0.24		
TALGGQCVDRQEVAEITKQLPPVV [TCAP]	4.07 ± 0.25	4.27 ± 0.13		
RQSRRQSVSRFFADSGADPKGEPG [FBF1]	5.04 ± 0.12	5.11 ± 0.17		
ENTCLLRGFSGGILAFLVLEAVAG [TSPAN10]	3.27 ± 0.15	2.58 ± 0.41		
VSLGQKLVAAYVLGLLTMVFLRT [MOSPD3]			2.56 ± 0.71	2.07 ± 0.42
KTILGNAHDNSEELERARELKEKE [ANKRD44]	5.62 ± 0.16	5.51 ± 0.21		
FDEPFLTRNVQSVSIIDTELKVKD [TRIP13]	4.65 ± 0.19	4.49 ± 0.068		
YQGLPVRCVKSIIRQVLQGLDYLH [SRPK2]	2.45 ± 0.27	2.59 ± 0.41		
QLRGQLQDLDSRLRAGSSEFDSEH [RASAL3]	4.71 ± 0.41	4.9 ± 0.46		
RAALKLEPSNKTIHAELSKLVKKH [FKBP8]	3.71 ± 0.19	3.85 ± 0.12		
KTGILILILSIIFIEGYCTPEEVI [MAGEA10]	3.53 ± 0.9	2.63 ± 0.36		
TLKQQHQQAVEQIAKAEETHSSLS [CCDC89]	5.07 ± 0.21	5.09 ± 0.14		
DTPCTNRGLPLLKTDFGSCLLQPP [DLC1]	3.41 ± 0.19	3.34 ± 0.34		
ELLCELGRPSMVWLSANPCPHCGD [PRAME]	2.08 ± 0.043	2.28 ± 0.31		
